Our source for the stoichiometry N values is article PMC6311007.

This assay has as its target porcine CSF1 fused to an antibody Fc region (pCSF1-Fc), produced in egg white of transgenic hens (porcine). Put plainly: non-reducing SDS-PAGE; pCSF1-Fc purified from egg white (MabSelect SuRe, SEC), non-reducing SDS-PAGE stained with Instant Blue.

As a reminder, the stoichiometry N is the number of molecules, sites or subunits per partner or assembly. For the substance “porcine CSF1 fused to an antibody Fc region (pCSF1-Fc), produced in egg white of transgenic hens (Fc fusion)”, the stoichiometry N was found to be 2.
